Results published in publication PMC3390373.

Target: FLAG-tagged C-terminally truncated RPS0A (residues 1–197) (S. cerevisiae) (UniProt P32905)
Assay: co-IP; WCE of H2880 wt cells overexpressing wt or C-terminally truncated RPS0A-FLAG; anti-FLAG M2 affinity matrix, 60 min, 4°C, buffer A200T (200 mM KCl, 20 mM Tris pH 8, 5 mM Mg acetate, 1 mM DTT, 0.2% Triton X-100); whole 40S subunits with their associated eIFs are recovered through the tagged RPS0A; Western blot, normalised to ASC1 (Figure 5B)

UniProt P32905, sequence (P32905 1-197): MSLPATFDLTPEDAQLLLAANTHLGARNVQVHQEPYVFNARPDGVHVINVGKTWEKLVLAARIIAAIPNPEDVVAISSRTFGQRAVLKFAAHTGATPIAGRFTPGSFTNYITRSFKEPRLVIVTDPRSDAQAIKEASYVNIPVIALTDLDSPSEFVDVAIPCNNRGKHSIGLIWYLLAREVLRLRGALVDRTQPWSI

## eIF2 (from UniProt P32481 1-527) (complex)
  percent reduction of the co-purified amount against wt RPS0A-FLAG: 70%
